In assay [1] the target is BG505-gp120 9MUTB (7MUT+N135R/Q328M) (HIV-1, strain BG505). The assay can be described thus: SPR, monomeric gp120.
The target of a further assay is BG505 SOSIP T332N gp140. The experiment in a line: SPR. Conditions: Fab.
In assay [2] the target is CD4 on human CD4+ T cells (human) (UniProt P01730). The experiment in a line: flow cytometry, trimer labelled with two fluorescent probes on human CD4+ T cells, 30 mins. In general terms: Flow cytometry measures light scatter and fluorescence of single cells or particles in a stream.

For orientation: Kd means the free concentration of one partner at which half of the binding sites on the other are occupied at equilibrium, for simple one-to-one binding. Lower therefore signals a tighter complex. For PGT121 (antibody), the Kd in assay [1] turned out to be 1.5 nM. PGT121 Fab registered a Kd with BG505 SOSIP T332N gp140 of 26 nM.

With “BG505 SOSIP T332N gp140 (other; other documents disagree on this pair)”, the percentage of cells bound (double-positive population) in assay [2] came out at 99.1%.

The values above are taken from patent US20190085033A1.
